T1: human FcγRIIb extracellular domain with C-terminal His tag (human, UniProt P31994 43-217)
T1 construct: extracellular domain; also called FcgRIIb; 2b; not shown: His tag attached to the C terminus
T1 sequence (looked up): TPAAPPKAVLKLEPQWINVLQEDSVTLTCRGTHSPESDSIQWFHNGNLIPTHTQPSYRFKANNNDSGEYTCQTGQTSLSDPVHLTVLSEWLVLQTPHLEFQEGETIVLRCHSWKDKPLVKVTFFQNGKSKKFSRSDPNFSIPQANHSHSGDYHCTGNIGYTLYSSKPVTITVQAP


These binders were tested against T1, human FcγRIIb extracellular domain with … (assay: SPR (Biacore T100), antibody captured on antigen peptide chip, FcγRIIb as analyte; relative binding).
Experimental: Analysis of interaction between objective antibody and the FcγR was carried out using Biacore T100 (GE Healthcare). HBS-EP+ (GE Healthcare) was used as the running buffer, and the measurement temperature was set to 25° C. Chips produced by immobilizing the antigen peptide by the amine coupling method to a Series S Sencor Chip CM5 (GE Healthcare), or alternatively, chips produced by allowing preliminarily biotinylated antigen peptides to interact with and immobilize onto a Series S Sensor Chip SA (certified) (GE Healthcare) were used. Antibodies of interest were captured onto an antigen peptide-immobilized chip, and allowed to interact to each FcγR diluted with running buffer. To regenerate and repeatedly use the chip, the antibodies captured on the chip were washed off by reacting 10 mM glycine-HCl, pH 1.5.

Row | Binder | He/Con_2b | Ho/Con_2b
1 | GpH7-A5/GpH7-B3 variant L328_15Y/GpL16-k0 (He Ab) (antibody, human IgG1, kappa, Anti-glypican-3 IgG1; mutation only in the GpH7-B3-derived H chain; also called L328Y heterodimerized antibody) heavy 1: not shown heavy 2: not shown light: DIVMTQSPLSLPVTPGEPASISCQASESLVHSNRNTYLHWYLQKPGQSPQLLIYKVSNRFSGVPDRFSGSGSGTDFTLKISRVEAEDVGVYYCSQNTHVPPTFGQGTKVEIERTVAAPSVFIFPPSDEQLKSGTASVVCLLNNFYPREAKVQWKVDNALQSGNSQESVTEQDSKDSTYSLSSTLTLSKADYEKHKVYACEVTHQGLSSPVTKSFNRGEC | 193 % of control GpH7-A5/GpH7-B3/GpL16-k0 (=100) | –
2 | GpH7-B3 variant T335_04F/GpL16-k0 (Ho Ab) (antibody, human IgG1, kappa, Anti-glypican-3 IgG1; mutation in both H chains; also called T335F homodimerized antibody) heavy: not shown light: DIVMTQSPLSLPVTPGEPASISCQASESLVHSNRNTYLHWYLQKPGQSPQLLIYKVSNRFSGVPDRFSGSGSGTDFTLKISRVEAEDVGVYYCSQNTHVPPTFGQGTKVEIERTVAAPSVFIFPPSDEQLKSGTASVVCLLNNFYPREAKVQWKVDNALQSGNSQESVTEQDSKDSTYSLSSTLTLSKADYEKHKVYACEVTHQGLSSPVTKSFNRGEC | – | 107 % of control GpH7-B3/GpL16-k0 (=100)
3 | GpH7-A5/GpH7-B3 variant L328_14T/GpL16-k0 (He Ab) (antibody, human IgG1, kappa, Anti-glypican-3 IgG1; mutation only in the GpH7-B3-derived H chain; also called L328T heterodimerized antibody) heavy 1: not shown heavy 2: not shown light: DIVMTQSPLSLPVTPGEPASISCQASESLVHSNRNTYLHWYLQKPGQSPQLLIYKVSNRFSGVPDRFSGSGSGTDFTLKISRVEAEDVGVYYCSQNTHVPPTFGQGTKVEIERTVAAPSVFIFPPSDEQLKSGTASVVCLLNNFYPREAKVQWKVDNALQSGNSQESVTEQDSKDSTYSLSSTLTLSKADYEKHKVYACEVTHQGLSSPVTKSFNRGEC | 141 % of control GpH7-A5/GpH7-B3/GpL16-k0 (=100) | –
4 | GpH7-A5/GpH7-B3 variant P238_08L/GpL16-k0 (He Ab) (antibody, human IgG1, kappa, Anti-glypican-3 IgG1; mutation only in the GpH7-B3-derived H chain; also called P238L heterodimerized antibody) heavy 1: not shown heavy 2: not shown light: DIVMTQSPLSLPVTPGEPASISCQASESLVHSNRNTYLHWYLQKPGQSPQLLIYKVSNRFSGVPDRFSGSGSGTDFTLKISRVEAEDVGVYYCSQNTHVPPTFGQGTKVEIERTVAAPSVFIFPPSDEQLKSGTASVVCLLNNFYPREAKVQWKVDNALQSGNSQESVTEQDSKDSTYSLSSTLTLSKADYEKHKVYACEVTHQGLSSPVTKSFNRGEC | 204 % of control GpH7-A5/GpH7-B3/GpL16-k0 (=100) | –
5 | GpH7-A5/GpH7-B3 variant L328_04F/GpL16-k0 (He Ab) (antibody, human IgG1, kappa, Anti-glypican-3 IgG1; mutation only in the GpH7-B3-derived H chain; also called L328F heterodimerized antibody) heavy 1: not shown heavy 2: not shown light: DIVMTQSPLSLPVTPGEPASISCQASESLVHSNRNTYLHWYLQKPGQSPQLLIYKVSNRFSGVPDRFSGSGSGTDFTLKISRVEAEDVGVYYCSQNTHVPPTFGQGTKVEIERTVAAPSVFIFPPSDEQLKSGTASVVCLLNNFYPREAKVQWKVDNALQSGNSQESVTEQDSKDSTYSLSSTLTLSKADYEKHKVYACEVTHQGLSSPVTKSFNRGEC | 219 % of control GpH7-A5/GpH7-B3/GpL16-k0 (=100) | –

Second part, the binder after the results:

Row | He/Con_2b | Ho/Con_2b | Binder
6 | 115 % of control GpH7-A5/GpH7-B3/GpL16-k0 (=100) | – | GpH7-A5/GpH7-B3 variant K334_18N/GpL16-k0 (He Ab) (antibody, human IgG1, kappa, Anti-glypican-3 IgG1; mutation only in the GpH7-B3-derived H chain; also called K334N heterodimerized antibody) heavy 1: not shown heavy 2: not shown light: DIVMTQSPLSLPVTPGEPASISCQASESLVHSNRNTYLHWYLQKPGQSPQLLIYKVSNRFSGVPDRFSGSGSGTDFTLKISRVEAEDVGVYYCSQNTHVPPTFGQGTKVEIERTVAAPSVFIFPPSDEQLKSGTASVVCLLNNFYPREAKVQWKVDNALQSGNSQESVTEQDSKDSTYSLSSTLTLSKADYEKHKVYACEVTHQGLSSPVTKSFNRGEC
7 | – | 106 % of control GpH7-B3/GpL16-k0 (=100) | GpH7-B3 variant T335_08L/GpL16-k0 (Ho Ab) (antibody, human IgG1, kappa, Anti-glypican-3 IgG1; mutation in both H chains; also called T335L homodimerized antibody) heavy: not shown light: DIVMTQSPLSLPVTPGEPASISCQASESLVHSNRNTYLHWYLQKPGQSPQLLIYKVSNRFSGVPDRFSGSGSGTDFTLKISRVEAEDVGVYYCSQNTHVPPTFGQGTKVEIERTVAAPSVFIFPPSDEQLKSGTASVVCLLNNFYPREAKVQWKVDNALQSGNSQESVTEQDSKDSTYSLSSTLTLSKADYEKHKVYACEVTHQGLSSPVTKSFNRGEC
8 | – | 110 % of control GpH7-B3/GpL16-k0 (=100) | GpH7-B3 variant S337_14T/GpL16-k0 (Ho Ab) (antibody, human IgG1, kappa, Anti-glypican-3 IgG1; mutation in both H chains; also called S337T homodimerized antibody) heavy: not shown light: DIVMTQSPLSLPVTPGEPASISCQASESLVHSNRNTYLHWYLQKPGQSPQLLIYKVSNRFSGVPDRFSGSGSGTDFTLKISRVEAEDVGVYYCSQNTHVPPTFGQGTKVEIERTVAAPSVFIFPPSDEQLKSGTASVVCLLNNFYPREAKVQWKVDNALQSGNSQESVTEQDSKDSTYSLSSTLTLSKADYEKHKVYACEVTHQGLSSPVTKSFNRGEC
9 | 160 % of control GpH7-A5/GpH7-B3/GpL16-k0 (=100) | – | GpH7-A5/GpH7-B3 variant L328_07I/GpL16-k0 (He Ab) (antibody, human IgG1, kappa, Anti-glypican-3 IgG1; mutation only in the GpH7-B3-derived H chain; also called L328I heterodimerized antibody) heavy 1: not shown heavy 2: not shown light: DIVMTQSPLSLPVTPGEPASISCQASESLVHSNRNTYLHWYLQKPGQSPQLLIYKVSNRFSGVPDRFSGSGSGTDFTLKISRVEAEDVGVYYCSQNTHVPPTFGQGTKVEIERTVAAPSVFIFPPSDEQLKSGTASVVCLLNNFYPREAKVQWKVDNALQSGNSQESVTEQDSKDSTYSLSSTLTLSKADYEKHKVYACEVTHQGLSSPVTKSFNRGEC
10 | 193 % of control GpH7-A5/GpH7-B3/GpL16-k0 (=100) | – | GpH7-A5/GpH7-B3 variant P271_01G/GpL16-k0 (He Ab) (antibody, human IgG1, kappa, Anti-glypican-3 IgG1; mutation only in the GpH7-B3-derived H chain; also called P271G heterodimerized antibody) heavy 1: not shown heavy 2: not shown light: DIVMTQSPLSLPVTPGEPASISCQASESLVHSNRNTYLHWYLQKPGQSPQLLIYKVSNRFSGVPDRFSGSGSGTDFTLKISRVEAEDVGVYYCSQNTHVPPTFGQGTKVEIERTVAAPSVFIFPPSDEQLKSGTASVVCLLNNFYPREAKVQWKVDNALQSGNSQESVTEQDSKDSTYSLSSTLTLSKADYEKHKVYACEVTHQGLSSPVTKSFNRGEC
11 | – | 116 % of control GpH7-B3/GpL16-k0 (=100) | GpH7-B3 variant T335_09D/GpL16-k0 (Ho Ab) (antibody, human IgG1, kappa, Anti-glypican-3 IgG1; mutation in both H chains; also called T335D homodimerized antibody) heavy: not shown light: DIVMTQSPLSLPVTPGEPASISCQASESLVHSNRNTYLHWYLQKPGQSPQLLIYKVSNRFSGVPDRFSGSGSGTDFTLKISRVEAEDVGVYYCSQNTHVPPTFGQGTKVEIERTVAAPSVFIFPPSDEQLKSGTASVVCLLNNFYPREAKVQWKVDNALQSGNSQESVTEQDSKDSTYSLSSTLTLSKADYEKHKVYACEVTHQGLSSPVTKSFNRGEC
